A value given as a limit tells only on which side of the number the result lay.

Data set [1] concerns the molecule itself. Nature of the data set: cell-based or functional assay.
Data set [2] concerns the molecule itself. Nature of the data set: SEC-MALS; Superose 6 10/300 GL, 20 mM HEPES pH 7.5, 150 mM KCl, 1 mM DTT; loading protein concentration varied, 500 uL injected; no nucleotide.
Data set [3] deals with the molecule itself. In words: number and brightness (N&B) analysis; living transfected wt MEFs, Drp1-null MEFs and HeLa cells, 37 C; brightness normalised to that of mEGFP alone taken as the monomer; puncta on mitochondria left out.
Data set [4] deals with the molecule itself. Nature of the data set: fluorescence correlation spectroscopy (single-point FCS); 0.5 uM fluorescently labeled protein in solution, 25 C, 20 mM HEPES pH 7.5, 150 mM KCl, 1 mM DTT; without and with 1 mM GMP-PCP and 1 mM MgCl2 (30 min); unlabeled Drp1-wt (1 uM final, 2X molar excess) added where it is the partner.

B1: mEGFP-Drp1 (N-terminally mEGFP-tagged Drp1 isoform 3), recombinant from E. coli (natural protein, human, UniProt O00429-4 1-699, looked up)
chain: MEALIPVINKLQDVFNTVGADIIQLPQIVVVGTQSSGKSSVLESLVGRDLLPRGTGIVTRRPLILQLVHVSQEDKRKTTGEENGVEAEEWGKFLHTKNKLYTDFDEIRQEIENETERISGNNKGVSPEPIHLKIFSPNVVNLTLVDLPGMTKVPVGDQPKDIELQIRELILRFISNPNSIILAVTAANTDMATSEALKISREVDPDGRRTLAVITKLDLMDAGTDAMDVLMGRVIPVKLGIIGVVNRSQLDINNKKSVTDSIRDEYAFLQKKYPSLANRNGTKYLARTLNRLLMHHIRDCLPELKTRINVLAAQYQSLLNSYGEPVDDKSATLLQLITKFATEYCNTIEGTAKYIETSELCGGARICYIFHETFGRTLESVDPLGGLNTIDILTAIRNATGPRPALFVPEVSFELLVKRQIKRLEEPSLRCVELVHEEMQRIIQHCSNYSTQELLRFPKLHDAIVEVVTCLLRKRLPVTNEMVHNLVAIELAYINTKHPDFADACGLMNNNIEEQRRNRLARELPSAVSRDKVASGGGGVGDGVQEPTTGNWRGMLKTSKAEELLAEEKSKPIPIMPASPQKGHAVNLLDVPVPVARKLSAREQRDCEVIERLIKSYFLIVRKNIQDSVPKAVMHFLVNHVKDTLQSELVGQLYKSSLLDDLLTESEDMAQRRKEAADMLKALQGASQIIAEIRETHLW
notes: dynamin-related protein 1 (Drp1), human, isoform 3, printed length 699 aa; mEGFP is EGFP with A206K (also denoted A207K); fusion sub-cloned from pEGFP-C1 into pET28a; Monomer ~111 kDa as printed; source: E. coli (pET28a), purified to apparent homogeneity, then gel filtration (ENrich SEC 650); not shown: mEGFP, N-terminal, kept
B1: the “decrease in GTP turnover (kcat) relative to Drp1-wt, basal and cardiolipin-stimulated, malachite green assay, 0.5 uM protein” value in data set [1] is greater than 50%. In addition, the “stoichiometry N” value in data set [2] was no less than 4.

B2: mEGFP-Drp1 (N-terminally mEGFP-tagged Drp1 isoform 3), expressed in mammalian cells (natural protein, human, UniProt O00429-4 1-699, looked up)
chain: MEALIPVINKLQDVFNTVGADIIQLPQIVVVGTQSSGKSSVLESLVGRDLLPRGTGIVTRRPLILQLVHVSQEDKRKTTGEENGVEAEEWGKFLHTKNKLYTDFDEIRQEIENETERISGNNKGVSPEPIHLKIFSPNVVNLTLVDLPGMTKVPVGDQPKDIELQIRELILRFISNPNSIILAVTAANTDMATSEALKISREVDPDGRRTLAVITKLDLMDAGTDAMDVLMGRVIPVKLGIIGVVNRSQLDINNKKSVTDSIRDEYAFLQKKYPSLANRNGTKYLARTLNRLLMHHIRDCLPELKTRINVLAAQYQSLLNSYGEPVDDKSATLLQLITKFATEYCNTIEGTAKYIETSELCGGARICYIFHETFGRTLESVDPLGGLNTIDILTAIRNATGPRPALFVPEVSFELLVKRQIKRLEEPSLRCVELVHEEMQRIIQHCSNYSTQELLRFPKLHDAIVEVVTCLLRKRLPVTNEMVHNLVAIELAYINTKHPDFADACGLMNNNIEEQRRNRLARELPSAVSRDKVASGGGGVGDGVQEPTTGNWRGMLKTSKAEELLAEEKSKPIPIMPASPQKGHAVNLLDVPVPVARKLSAREQRDCEVIERLIKSYFLIVRKNIQDSVPKAVMHFLVNHVKDTLQSELVGQLYKSSLLDDLLTESEDMAQRRKEAADMLKALQGASQIIAEIRETHLW
notes: dynamin-related protein 1 (Drp1), human, isoform 3, printed length 699 aa; mEGFP is EGFP with A206K; In wt MEFs and HeLa cells endogenous Drp1 is also present; also called cytosolic mEGFP-Drp1; source: wt MEFs, Drp1-null MEFs and HeLa cells, transfected (pEGFP-C1), in living cells; not shown: mEGFP, N-terminal, kept
Take B2: the “stoichiometry N” value in data set [3] was roughly 4.

B3: Drp1-BODIPY FL (Drp1 labeled on surface Cys with BODIPY-FL C1-iodoacetamide) (natural protein, human, UniProt O00429-4 1-699, looked up)
chain: MEALIPVINKLQDVFNTVGADIIQLPQIVVVGTQSSGKSSVLESLVGRDLLPRGTGIVTRRPLILQLVHVSQEDKRKTTGEENGVEAEEWGKFLHTKNKLYTDFDEIRQEIENETERISGNNKGVSPEPIHLKIFSPNVVNLTLVDLPGMTKVPVGDQPKDIELQIRELILRFISNPNSIILAVTAANTDMATSEALKISREVDPDGRRTLAVITKLDLMDAGTDAMDVLMGRVIPVKLGIIGVVNRSQLDINNKKSVTDSIRDEYAFLQKKYPSLANRNGTKYLARTLNRLLMHHIRDCLPELKTRINVLAAQYQSLLNSYGEPVDDKSATLLQLITKFATEYCNTIEGTAKYIETSELCGGARICYIFHETFGRTLESVDPLGGLNTIDILTAIRNATGPRPALFVPEVSFELLVKRQIKRLEEPSLRCVELVHEEMQRIIQHCSNYSTQELLRFPKLHDAIVEVVTCLLRKRLPVTNEMVHNLVAIELAYINTKHPDFADACGLMNNNIEEQRRNRLARELPSAVSRDKVASGGGGVGDGVQEPTTGNWRGMLKTSKAEELLAEEKSKPIPIMPASPQKGHAVNLLDVPVPVARKLSAREQRDCEVIERLIKSYFLIVRKNIQDSVPKAVMHFLVNHVKDTLQSELVGQLYKSSLLDDLLTESEDMAQRRKEAADMLKALQGASQIIAEIRETHLW
modifications: BODIPY-FL iodoacetamide on Cys; primary targets of thiol modification are surface residues C505 and C607; ~2 mol dye/mol protein
notes: dynamin-related protein 1 (Drp1), human, isoform 3, printed length 699 aa; also called BODIPY-labeled Drp1; dye-labeled Drp1; source: E. coli, purified, then labeled with thiol-reactive BODIPY-FL iodoacetamide
Consider B3, for which the binding result in data set [4] is on record as “binds”.

B4: Drp1-AF488 (Drp1 labeled on surface Cys with Alexa Fluor 488 C5-maleimide) (natural protein, human, UniProt O00429-4 1-699, looked up)
chain: MEALIPVINKLQDVFNTVGADIIQLPQIVVVGTQSSGKSSVLESLVGRDLLPRGTGIVTRRPLILQLVHVSQEDKRKTTGEENGVEAEEWGKFLHTKNKLYTDFDEIRQEIENETERISGNNKGVSPEPIHLKIFSPNVVNLTLVDLPGMTKVPVGDQPKDIELQIRELILRFISNPNSIILAVTAANTDMATSEALKISREVDPDGRRTLAVITKLDLMDAGTDAMDVLMGRVIPVKLGIIGVVNRSQLDINNKKSVTDSIRDEYAFLQKKYPSLANRNGTKYLARTLNRLLMHHIRDCLPELKTRINVLAAQYQSLLNSYGEPVDDKSATLLQLITKFATEYCNTIEGTAKYIETSELCGGARICYIFHETFGRTLESVDPLGGLNTIDILTAIRNATGPRPALFVPEVSFELLVKRQIKRLEEPSLRCVELVHEEMQRIIQHCSNYSTQELLRFPKLHDAIVEVVTCLLRKRLPVTNEMVHNLVAIELAYINTKHPDFADACGLMNNNIEEQRRNRLARELPSAVSRDKVASGGGGVGDGVQEPTTGNWRGMLKTSKAEELLAEEKSKPIPIMPASPQKGHAVNLLDVPVPVARKLSAREQRDCEVIERLIKSYFLIVRKNIQDSVPKAVMHFLVNHVKDTLQSELVGQLYKSSLLDDLLTESEDMAQRRKEAADMLKALQGASQIIAEIRETHLW
modifications: AF488 maleimide on Cys; primary targets of thiol modification are surface residues C505 and C607; ~2 mol dye/mol protein
notes: dynamin-related protein 1 (Drp1), human, isoform 3, printed length 699 aa; also called AF488-labeled Drp1; dye-labeled Drp1; source: E. coli, purified, then labeled with thiol-reactive AF488 maleimide
Regarding B4, the binding result in data set [4] is listed as “binds”.

B5: Drp1-wt (N-terminal 6XHis-tagged human dynamin-related protein 1, isoform 3) (natural protein, UniProt O00429-4 1-699, looked up)
chain: MEALIPVINKLQDVFNTVGADIIQLPQIVVVGTQSSGKSSVLESLVGRDLLPRGTGIVTRRPLILQLVHVSQEDKRKTTGEENGVEAEEWGKFLHTKNKLYTDFDEIRQEIENETERISGNNKGVSPEPIHLKIFSPNVVNLTLVDLPGMTKVPVGDQPKDIELQIRELILRFISNPNSIILAVTAANTDMATSEALKISREVDPDGRRTLAVITKLDLMDAGTDAMDVLMGRVIPVKLGIIGVVNRSQLDINNKKSVTDSIRDEYAFLQKKYPSLANRNGTKYLARTLNRLLMHHIRDCLPELKTRINVLAAQYQSLLNSYGEPVDDKSATLLQLITKFATEYCNTIEGTAKYIETSELCGGARICYIFHETFGRTLESVDPLGGLNTIDILTAIRNATGPRPALFVPEVSFELLVKRQIKRLEEPSLRCVELVHEEMQRIIQHCSNYSTQELLRFPKLHDAIVEVVTCLLRKRLPVTNEMVHNLVAIELAYINTKHPDFADACGLMNNNIEEQRRNRLARELPSAVSRDKVASGGGGVGDGVQEPTTGNWRGMLKTSKAEELLAEEKSKPIPIMPASPQKGHAVNLLDVPVPVARKLSAREQRDCEVIERLIKSYFLIVRKNIQDSVPKAVMHFLVNHVKDTLQSELVGQLYKSSLLDDLLTESEDMAQRRKEAADMLKALQGASQIIAEIRETHLW
notes: dynamin-related protein 1 (Drp1), human, isoform 3, printed length 699 aa; also called unlabeled Drp1-wt; native-like His-tagged Drp1; source: E. coli, purified to apparent homogeneity, then gel filtration (ENrich SEC 650)
Take B5: the “stoichiometry N” value in data set [2] is no less than 2.

B6: Drp1-mEGFP (C-terminally mEGFP-tagged Drp1 isoform 3), recombinant from E. coli (natural protein, human, UniProt O00429-4 1-699, looked up)
chain: MEALIPVINKLQDVFNTVGADIIQLPQIVVVGTQSSGKSSVLESLVGRDLLPRGTGIVTRRPLILQLVHVSQEDKRKTTGEENGVEAEEWGKFLHTKNKLYTDFDEIRQEIENETERISGNNKGVSPEPIHLKIFSPNVVNLTLVDLPGMTKVPVGDQPKDIELQIRELILRFISNPNSIILAVTAANTDMATSEALKISREVDPDGRRTLAVITKLDLMDAGTDAMDVLMGRVIPVKLGIIGVVNRSQLDINNKKSVTDSIRDEYAFLQKKYPSLANRNGTKYLARTLNRLLMHHIRDCLPELKTRINVLAAQYQSLLNSYGEPVDDKSATLLQLITKFATEYCNTIEGTAKYIETSELCGGARICYIFHETFGRTLESVDPLGGLNTIDILTAIRNATGPRPALFVPEVSFELLVKRQIKRLEEPSLRCVELVHEEMQRIIQHCSNYSTQELLRFPKLHDAIVEVVTCLLRKRLPVTNEMVHNLVAIELAYINTKHPDFADACGLMNNNIEEQRRNRLARELPSAVSRDKVASGGGGVGDGVQEPTTGNWRGMLKTSKAEELLAEEKSKPIPIMPASPQKGHAVNLLDVPVPVARKLSAREQRDCEVIERLIKSYFLIVRKNIQDSVPKAVMHFLVNHVKDTLQSELVGQLYKSSLLDDLLTESEDMAQRRKEAADMLKALQGASQIIAEIRETHLW
On to B6, for which the “decrease in GTP turnover (kcat) relative to Drp1-wt, basal and cardiolipin-stimulated, malachite green assay, 0.5 uM protein” value in data set [1] was greater than 50%.

Values taken from publication PMC7479153, “GFP fluorescence tagging alters dynamin-related protein 1 oligomerization dynamics and creates disassembly-refractory puncta to mediate mitochondrial fission” (Scientific Reports, 2020).
